{"source": "patent US20090281024A1", "key": {"[1]": {"biological_target": "MAT CR12 (matriptase CR pair 1-2) (human) (UniProt Q9Y5Y6)", "sequence (Q9Y5Y6 452-524 limits assumed)": "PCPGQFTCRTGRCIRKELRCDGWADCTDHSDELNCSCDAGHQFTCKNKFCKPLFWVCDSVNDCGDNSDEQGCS", "assay": "relative binding signal under isomolar conditions on MAT CR12 (heading of the figure); solid-phase binding assay"}, "[2]": {"biological_target": "LRP2 CR89 Y1042W V1047D (human) (UniProt P98164)", "sequence (P98164 1022-1105 Y1043W/V1048D limits assumed)": "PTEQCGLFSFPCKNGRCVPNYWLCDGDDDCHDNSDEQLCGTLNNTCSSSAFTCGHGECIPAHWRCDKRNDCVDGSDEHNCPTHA", "assay": "solid-phase assay, coated CR protein"}, "[3]": {"biological_target": "LRP2 CR89 Y1042W V1047D R1088D (human) (UniProt P98164)", "assay": "solid-phase assay, coated CR protein"}}, "data": [{"substance": "MatRAP1 N-42 (from UniProt P30533 277-353) (designed binder)", "values": [{"measurement": "fnctn (relative binding signal under isomolar conditions)", "setting": "[1]", "value": 0.65}]}, {"substance": "RAP d3 (wild-type third domain of the receptor-associated protein) (from UniProt P30533 235-353) (ligand)", "values": [{"measurement": "% max bind", "setting": "[2]", "value": 11, "unit": "%"}, {"measurement": "% max bind", "setting": "[3]", "value": 15, "unit": "%"}]}]}
